Test results as given in article PMC5118791.

Key:
[1] = molecular target: recombinant Factor VIIa (rFVIIa)
[2] = molecular target: recombinant Factor VIIa (rFVIIa); test: BLI; Octet Red, Ni-NTA biosensors, 37 °C, 1000 rpm; association 180 sec, dissociation 10 min; 1:1 model, global fit; the legend of Figure 4b says rFVIIa was immobilised

Sequence of recombinant Factor VIIa (rFVIIa) (P08709 whole entry): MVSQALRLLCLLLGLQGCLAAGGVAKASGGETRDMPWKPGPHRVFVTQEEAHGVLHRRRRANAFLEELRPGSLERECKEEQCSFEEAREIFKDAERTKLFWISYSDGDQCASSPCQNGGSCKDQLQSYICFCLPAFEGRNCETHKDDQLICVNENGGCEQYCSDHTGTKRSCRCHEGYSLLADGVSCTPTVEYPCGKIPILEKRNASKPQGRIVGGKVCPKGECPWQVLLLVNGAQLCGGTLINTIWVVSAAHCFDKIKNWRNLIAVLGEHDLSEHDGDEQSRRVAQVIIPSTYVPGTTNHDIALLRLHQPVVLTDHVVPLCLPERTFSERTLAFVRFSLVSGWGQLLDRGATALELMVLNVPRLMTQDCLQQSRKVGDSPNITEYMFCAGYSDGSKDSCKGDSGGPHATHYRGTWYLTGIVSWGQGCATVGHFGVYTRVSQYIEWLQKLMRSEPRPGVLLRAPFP

B1: E-76 peptide (peptide)
peptide: ALCDDPRVDRWYCQFVEG
[1]
  prothrombin time (PT) in citrated human plasma, maximal fold prolongation over normal clotting time: 3 fold
[2]
  Kd: 6.2 nM
